Experimental data reported in doi:10.1101/2024.07.08.601072.

Molecular target: H2A-H2B dimers (yeast) (yeast) (UniProt P04911)
Experiment: native gel or EMSA

Purified Tom1p (Tom1p-Protein A after Protein A removal) (from UniProt Q03280 1-3268) (enzyme)
Kd: 160 to 330 nM
